Assay results published in patent US20110281938A1 (BAXTER INTERNATIONAL, published 2011).

Molecular target: T1, Full-length TFPI (recombinant human tissue factor pathway inhibitor, American Diagnostica, E. coli expressed) (human, UniProt P10646 29-304)
T1 construct: also called recombinant TFPI; human TFPI
T1 sequence: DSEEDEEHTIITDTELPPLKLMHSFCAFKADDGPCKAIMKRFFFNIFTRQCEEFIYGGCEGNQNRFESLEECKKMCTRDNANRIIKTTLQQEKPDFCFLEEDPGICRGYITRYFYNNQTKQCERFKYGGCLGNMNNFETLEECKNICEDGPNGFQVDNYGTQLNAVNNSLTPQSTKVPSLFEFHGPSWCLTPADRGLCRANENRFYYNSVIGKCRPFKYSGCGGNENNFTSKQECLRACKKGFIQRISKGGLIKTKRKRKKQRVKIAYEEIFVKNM
Experiment: dot-blot (nitrocellulose filtration) binding competition: 10 nM TFPI, trace radiolabeled aptamer ARC17480 as the displaced ligand, FXa varied 2000-0.10 nM
Procedure: For these experiments, human TFPI at a final concentration of 10 nM (American Diagnostica, Stamford, Conn., catalog #4900PC) was incubated with trace amounts of radiolabeled ARC17480 and different concentrations of human FXa (Haematologic Technologies, Essex Junction, Vt. catalog #HCXA-0060) or ARC19499 (2000 nM-0.10 nM). A control was also carried out in the absence of TFPI in which trace amounts of radiolabeled ARC17480 was incubated with different concentrations of FXa (2000 nM-0.10 nM). The percentage of radiolabeled ARC17480 bound was plotted as a function of competitor concentration and fit to the equation y=(max/(1+x/IC₅₀))+int, where y=the percentage of radiolabeled ARC17480 bound, x=the concentration of competitor, max=the maximum radiolabeled ARC17480 bound, and int=the y-intercept, to generate an IC₅₀ value for binding-competition. […] FXa partially competes with ARC17480 for binding to TFPI, as evidenced by a plateau in the competition-binding curve at concentrations above ˜75 nM. In contrast, ARC19499 completely competes with radiolabeled ARC17480 for binding to TFPI.

B1: human FXa (Haematologic Technologies, catalog #HCXA-0060) (enzyme)
chain 1: ANSFLEEMKKGHLERECMEETCSYEEAREVFEDSDKTNEFWNKYKDGDQCETSPCQNQGKCKDGLGEYTCTCLEGFEGKNCELFTRKLCSLDNGDCDQFCHEEQNSVVCSCARGYTLADNGKACIPTGPYPCGKQTLER
chain 2: IVGGQECKDGECPWQALLINEENEGFCGGTILSEFYILTAAHCLYQAKRFKVRVGDRNTEQEEGGEAVHEVEVVIKHNRFTKETYDFDIAVLRLKTPITFRMNVAPACLPERDWAESTLMTQKTGIVSGFGRTHEKGRQSTRLKMLEVPYVDRNSCKLSSSFIITQNMFCAGYDTKQEDACQGDSGGPHVTRFKDTYFVTGIVSWGEGCARKGKYGIYTKVTAFLKWIDRSMKTRGLPKAKSHAPEVITSSPLK
notes: FXa is a two-chain protease; also called Factor Xa
With B1 the “IC50 (read off the curve)” value was about 7 nM.
